# PMC11121168
# Test system: CC[C@H](NC(=O)OC(C)(C)C)C(=O)N[C@H](C(=O)N[C@@H](CC(C)C)C(=O)N[C@@H](CCC(N)=O)C(=O)Nc1ccc2c(C)cc(=O)oc2c1)C(C)(C)C
# Experiment: purified protein, by the assay type
# Settings: pH 7.2; 37.0 °C
substance,measurement,value
C-terminally His-tagged SARS-CoV-2 Mpro (Severe acute respiratory syndrome coronavirus 2),Km,85.2 ± 5.6 µM
